Results taken from article PMC11139879.

What was measured:
[1] = target: T1, pP1192R DNA topoisomerase II, full-length (African swine fever virus, UniProt A0A2X0THW2 1-1192); assay: EMSA; settings: protein: recombinant; tags: C-terminal 8xHis; chain copies: 2; label: 5'-Cy5 on O1; four-way junction of O1-O4
[2] = target: T1, pP1192R DNA topoisomerase II, …; assay: size exclusion chromatography; settings: protein: recombinant; tags: C-terminal 8xHis; chain copies: 2; four-way junction of O1-O4
[3] = target: T1, pP1192R DNA topoisomerase II, …; assay: cryo-EM; settings: protein: recombinant; tags: C-terminal 8xHis; chain copies: 2; blunt

B1: four-way junction DNA, Cy5 (structured_DNA)
DNA 1: CTGGACGCAATCTGACAATGCGCTCATCGTCATCCTCGGCACGCGCCG
DNA 2: CGGCGCGTGCCGAGGATGACGATGAGATAGGCGTTAACGCGGCCTA
DNA 3: TAGGCCGCGTTAACGCCTATTTGCCCGGGAGTACCGGCATTCCT
DNA 4: AGGAATGCCGGTACTCCCGGGCAACGCATTGTCAGATTGCGTCCAG
[1]
  binding result: binds

B2: four-way junction DNA (structured_DNA)
DNA 1: B1 DNA 1
DNA 2: B1 DNA 2
DNA 3: B1 DNA 3
DNA 4: B1 DNA 4
[2]
  binding result: binds

B3: 52 bp dsDNA (G-segment) (dsDNA)
DNA 1: ATGCATATATATGTATATGTATGTGTGTATATATACACATATATATATATAT
DNA 2: ATATATATATATATGTGTATATATACACACATACATATACATATATATGCAT
[3]
  binding result: binds
